Experimental data reported in PMC10233381.

Biological target: Myc-PUM1-R1147W (human) (UniProt Q14671)
Test: co-IP; HEK293T co-transfected with Myc-PUM1 (WT or mutant) and a GST-tagged protein (250 ng each), 48 h; IP with anti-Myc, immunoblot with anti-GST; quantified against Myc-PUM1-WT; called in vitro by the paper

Sequence of UniProt Q14671 (Q14671 other isoform, or with tags, fused parts or gaps R1147W): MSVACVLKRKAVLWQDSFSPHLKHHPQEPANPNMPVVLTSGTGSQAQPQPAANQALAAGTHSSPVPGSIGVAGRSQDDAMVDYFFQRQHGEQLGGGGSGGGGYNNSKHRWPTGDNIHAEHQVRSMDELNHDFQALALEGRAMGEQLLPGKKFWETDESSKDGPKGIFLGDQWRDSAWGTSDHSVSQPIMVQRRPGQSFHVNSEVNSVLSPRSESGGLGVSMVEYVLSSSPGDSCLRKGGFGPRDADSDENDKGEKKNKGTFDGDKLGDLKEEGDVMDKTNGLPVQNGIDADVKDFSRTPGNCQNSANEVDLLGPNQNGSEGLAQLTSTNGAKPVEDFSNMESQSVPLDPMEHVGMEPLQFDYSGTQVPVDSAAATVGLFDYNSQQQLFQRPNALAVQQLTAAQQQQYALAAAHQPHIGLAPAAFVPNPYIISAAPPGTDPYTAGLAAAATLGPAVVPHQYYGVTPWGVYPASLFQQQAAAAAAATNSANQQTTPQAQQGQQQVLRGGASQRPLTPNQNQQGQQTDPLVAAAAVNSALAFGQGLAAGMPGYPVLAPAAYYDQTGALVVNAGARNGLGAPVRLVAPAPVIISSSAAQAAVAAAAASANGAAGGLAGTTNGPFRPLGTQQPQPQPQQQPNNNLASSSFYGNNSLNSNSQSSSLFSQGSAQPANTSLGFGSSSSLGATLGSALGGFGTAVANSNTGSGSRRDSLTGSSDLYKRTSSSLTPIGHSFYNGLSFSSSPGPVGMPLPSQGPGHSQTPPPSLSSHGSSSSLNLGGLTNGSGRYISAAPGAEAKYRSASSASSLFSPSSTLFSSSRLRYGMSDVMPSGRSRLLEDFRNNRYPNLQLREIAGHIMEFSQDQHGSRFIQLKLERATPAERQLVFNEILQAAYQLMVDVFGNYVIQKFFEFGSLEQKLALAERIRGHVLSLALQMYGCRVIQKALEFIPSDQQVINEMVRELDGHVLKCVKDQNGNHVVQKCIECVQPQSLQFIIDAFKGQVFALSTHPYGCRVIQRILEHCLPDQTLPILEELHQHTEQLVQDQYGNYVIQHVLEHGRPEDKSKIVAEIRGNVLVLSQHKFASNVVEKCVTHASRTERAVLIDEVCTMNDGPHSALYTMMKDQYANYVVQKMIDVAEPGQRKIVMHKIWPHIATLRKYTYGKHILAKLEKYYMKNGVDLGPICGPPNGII

A percent by which the interaction was diminished of 35% was found for “GST-CNOT1 (from UniProt A5YKK6 1-2376) (natural protein)” in this work.
